# According to US12460006B2, “Antibodies against integrin alpha 11 beta 1” (Momenta Pharmaceuticals, Inc., priority 2019, dated 2025):
# T1: α11β1 expressed on the surface of CHO-K1 cells (Homo sapiens, UniProt Q9UKX5)
# T1 construct: expressed in transfected cells; host or cells: CHO-K1
# T1 sequence (Q9UKX5 23-1188): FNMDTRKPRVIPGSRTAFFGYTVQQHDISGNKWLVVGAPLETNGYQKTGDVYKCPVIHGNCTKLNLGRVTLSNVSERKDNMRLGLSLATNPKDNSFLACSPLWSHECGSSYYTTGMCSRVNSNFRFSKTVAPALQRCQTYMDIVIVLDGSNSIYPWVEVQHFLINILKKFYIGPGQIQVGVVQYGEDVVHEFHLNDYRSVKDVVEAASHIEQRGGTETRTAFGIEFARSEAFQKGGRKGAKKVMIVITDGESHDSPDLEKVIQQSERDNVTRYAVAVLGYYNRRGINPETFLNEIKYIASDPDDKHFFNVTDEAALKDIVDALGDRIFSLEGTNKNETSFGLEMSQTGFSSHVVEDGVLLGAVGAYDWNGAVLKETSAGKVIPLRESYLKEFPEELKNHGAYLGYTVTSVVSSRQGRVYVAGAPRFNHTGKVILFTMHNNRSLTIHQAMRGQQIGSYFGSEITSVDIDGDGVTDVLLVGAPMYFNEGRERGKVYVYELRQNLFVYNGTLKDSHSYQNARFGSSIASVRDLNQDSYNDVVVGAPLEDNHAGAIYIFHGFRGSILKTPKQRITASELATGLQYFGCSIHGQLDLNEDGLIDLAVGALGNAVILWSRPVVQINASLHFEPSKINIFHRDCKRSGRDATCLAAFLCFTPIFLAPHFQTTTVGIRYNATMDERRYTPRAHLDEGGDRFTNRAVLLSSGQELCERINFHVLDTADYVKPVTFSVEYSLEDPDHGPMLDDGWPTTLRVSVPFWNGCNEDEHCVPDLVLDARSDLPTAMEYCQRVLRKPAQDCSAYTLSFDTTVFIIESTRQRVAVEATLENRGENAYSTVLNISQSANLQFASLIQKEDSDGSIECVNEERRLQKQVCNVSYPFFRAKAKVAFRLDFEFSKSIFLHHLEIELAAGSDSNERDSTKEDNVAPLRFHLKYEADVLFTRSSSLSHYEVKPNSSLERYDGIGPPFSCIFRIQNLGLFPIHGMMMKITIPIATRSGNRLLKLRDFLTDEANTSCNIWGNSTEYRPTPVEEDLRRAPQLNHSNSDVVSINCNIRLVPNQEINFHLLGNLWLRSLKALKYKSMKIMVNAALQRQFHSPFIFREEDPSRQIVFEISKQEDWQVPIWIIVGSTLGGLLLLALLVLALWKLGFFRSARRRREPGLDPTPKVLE
# B1: 16E10: rabbit anti-α11β1 mAb; heavy chain SEQ ID NO: 161, light chain SEQ ID NO: 162 (antibody)
# heavy: METGLRWLLLVAVLKGVQCQSLEESGGDLVKPGASLTLTCRVSGFSFSSSYYMCWVRQAPGKGLEWIACIGTTRGSTYYATWAKGRFTISKISSTTVTLQMTSLTDADTATYFCARDATGYRINTIGLYFNLWGPGTLVTVSSGQPKAPSVFPLAPCCGDTPSSTVTLGCLVKGYLPEPVTVTWNSGTLTNGVRTFPSVRQSSGLYSLSSVVSVTSSSQPVTCNVAHPATNTKVDKTVAPSTCSKPMCPPPELPGGPSVFIFPPKPKDTLMISRTPEVTCVVVDVSQDDPEVQFTWYINNEQVRTARPPLREQQFNSTIRVVSTLPIAHQDWLRGKEFKCKVHNKALPAPIEKTISKARGQPLEPKVYTMGPPREELSSRSVSLTCMINGFYPSDISVEWEKNGKAEDNYKTTPTVLDSDGSYFLYSKLSVPTSEWQRGDVFTCSVMHEALHNHYTQKSISRSPGK
# light: MDTRAPTQLLGLLLLWLPGARCAFELTQTPSSVEAAVGGTPTIKCQASQTIYSYLSWYQQKPGQPPKLLIYEASKLASGVPSRFSGSGSGTDYTLTISDLECADAATYYCQSYHGTASTEYNTFGGGTEVVVRGDPVAPTVLIFPPAADQVATGTVTIVCVANKYFPDVTVTWEVDGTTQTTGIENSKTPQNSADCTYNLSSTLTLTSTQYNSHKEYTCKVTQGTTSVVQSFNRGDC
# B2: 9-G05: mouse anti-α11β1 mAb; VH SEQ ID NO: 103, VL SEQ ID NO: 104 (antibody, V domains shown)
# VH: EVQLQQSGPELVKPGASVKIPCKASGYTFPDYNMDWVKQSHGKSLEWIGYINPDNGGTIYNQKFKGKATLTVDKSSSTAYMELRSLTSEDTAVYYCARLDSSGYGYYAMDYWGQGTSVTVSS
# VL: DIVLTQSPASLAVSLGQRATISCRASESVDNYGISFMHWYQQKPGQPPKLLIYRASNLDSEIPARFSGSGSRTDFTLTIDPVETDDVATYYCQQSYKDPRTFGGGTKLEIK
# B3: 9-E16: mouse anti-α11β1 mAb; VH SEQ ID NO: 111, VL SEQ ID NO: 112 (antibody, V domains shown)
# VH: EVQLQQSGPELVKPGASVKISCKASGYTFTDYYMHWVKQKPGQGLEWIGEIYPGSGNPYYNEKFKGKATLTADKSSSSAYMQLSSLTSEDSAVYFCARTSYGRVGTGFAYWGQGTLVTVSA
# VL: NFVMTQTPLSLPVSLGDQASISCRSSQSLLHSNGNTYLHWYLQKPGQSPKLLIYKVSNRFSGVPDRFSGSGSGTDFTLKINRVETEDLGIYFCSQSSHVPTFGAGTKLELK
# B4: 40G10H11: rat anti-α11β1 mAb; VH SEQ ID NO: 157, VL SEQ ID NO: 158 (antibody, V domains shown)
# VH: MDIRLSLGFLVLFIKGDQCAVQLVESGGGLVQPGRSLKLSCAASRITFTDYYMAWVRQAPTKGLEWVATISSDGGDTFYRDSVKGRFTISRDNAKSTLYLQMVSLRSEDTATYYCSTDRGAQFGYWGQGTLVTVSS
# VL: MAPVQLLGLLLIWLPAMRCDIQMTQSPSFLSASVGDRVSINCKASQNVHENLNWYQQKLGEAPKRLIYNTNNLQTGIPSRFSGSGSGADYTLTISSLQPEDFATYFCLQHNAFPYTFGPGTKLELK
# B5: 24E4G6: rat anti-α11β1 mAb; VH SEQ ID NO: 147, VL SEQ ID NO: 148 (antibody, V domains shown)
# VH: MELELSLIFIFSLLKDVQCEVQLVESGGSLVQPGGSLKLSCVASGYTFSNYWMDWVRQSPGKSLEWIGEINTDGRRTNYAPSIKDRFTISRDNAKSTLYLQMSNVKSDDTAIYYCTILRVYPHYFDYWGQGVMVTVSS
# VL: MMSPAQFLFLLMLWIQEARGDVVMTQTPPSLSVAIGQSVSISCKSSQSLVYSDGETYLHWFLQSPGRSPKRLIYHVSNLGSGVPDRFSGTGSLTDFTLRISRVEAEDLGVYYCAQTTHFPPTFGAGTKLELK
# B6: 3-G5: mouse anti-α11β1 mAb; VH SEQ ID NO: 135, VL SEQ ID NO: 136 (antibody, V domains shown)
# VH: QVQLQQSGAELARPGASVKLSCKASGYTFTSYGISWVKQRTGQGLEWIGEIFPRSSNTYYNEKFKGKATLTADKSSSTVYMEFRSLTSEDSAVYFCAREGGLAWFAYWGQGTLVTVSA
# VL: DVVMTQTPLTLSVTIGQPASISCKSSQSLLYTNGNTYLNWLLQRPGQSPKRLIYLVSKLDSGIPDRFSGSGSGTDFTLRISRVEAEDLGVYYCLQSTHFPFTFGSGTKLEIK
# B7: 16G7: rabbit anti-α11β1 mAb; heavy chain SEQ ID NO: 159, light chain SEQ ID NO: 160 (antibody)
# heavy: METGLRWLLLVAVFKGVQCQEQLVESGGDLVKPGASLTLTCTASGFSFNKNYWMCWVRQAPGKGLEWIGCIYNGDGNTYYASWVNGRFTISKTSSTTVTLQMTSLTVADTAIYFCARLLNMWGPGTLVTVSSGQPKAPSVFPLAPCCGDTPSSTVTLGCLVKGYLPEPVTVTWNSGTLTNGVRTFPSVRQSSGLYSLSSVVSVTSSSQPVTCNVAHPATNTKVDKTVAPSTCSKPMCPPPELPGGPSVFIFPPKPKDTLMISRTPEVTCVVVDVSQDDPEVQFTWYINNEQVRTARPPLREQQFNSTIRVVSTLPIAHQDWLRGKEFKCKVHNKALPAPIEKTISKARGQPLEPKVYTMGPPREELSSRSVSLTCMINGFYPSDISVEWEKNGKAEDNYKTTPTVLDSDGSYFLYSKLSVPTSEWQRGDVFTCSVMHEALHNHYTQKSISRSPGK
# light: MDTRAPTQLLGLLLLWLPGARCADIVMTQTPASVEAAVGGTVTIKCQASESIGNALAWYQQKPGQPPKLLIYTAATLASGVPSRFSGSGSGTEFTLTISGVQCDDAATYYCQSYYFTSVSSYGNAFGGGTEVVVKGDPVAPTVLIFPPAADQVATGTVTIVCVANKYFPDVTVTWEVDGTTQTTGIENSKTPQNSADCTYNLSSTLTLTSTQYNSHKEYTCKVTQGTTSVVQSFNRGDC
# Molecular target: mouse α11β1 (Mus musculus, UniProt P61622)
# Assay: ELISA binding to recombinant mouse α11β1
# Conditions: not given
# Protocol: 0.25 μg/mL of target antigen (recombinant human or mouse α11β1) was plated in a 96-well plate over night at 4° C. Plates were washed (PBS with 0.1% Tween-20), blocked (PBS with 2% BSA and 0.05% Tween-20) for 1 hour at room temperature and incubated with a range of antibody concentrations for 1 hour at room temperature. Subsequently, plates were washed and incubated with biotinylated anti-rabbit/mouse/human IgG in a 1:1000 dilution buffer and incubated for 1 hour at room temperature. After washing the plates, Streptavidin HRP was added at 1:200 in dilution buffer and incubated for 1 hour at room temperature. Ultra TMB ELISA substrate solution was added and the plates incubated for 5 minutes on a plate shaker. The reaction was stopped by adding stop solution to each well and plates were read at 450 nm.
# Sequence of mouse α11β1 (P61622 23-1141 limits assumed): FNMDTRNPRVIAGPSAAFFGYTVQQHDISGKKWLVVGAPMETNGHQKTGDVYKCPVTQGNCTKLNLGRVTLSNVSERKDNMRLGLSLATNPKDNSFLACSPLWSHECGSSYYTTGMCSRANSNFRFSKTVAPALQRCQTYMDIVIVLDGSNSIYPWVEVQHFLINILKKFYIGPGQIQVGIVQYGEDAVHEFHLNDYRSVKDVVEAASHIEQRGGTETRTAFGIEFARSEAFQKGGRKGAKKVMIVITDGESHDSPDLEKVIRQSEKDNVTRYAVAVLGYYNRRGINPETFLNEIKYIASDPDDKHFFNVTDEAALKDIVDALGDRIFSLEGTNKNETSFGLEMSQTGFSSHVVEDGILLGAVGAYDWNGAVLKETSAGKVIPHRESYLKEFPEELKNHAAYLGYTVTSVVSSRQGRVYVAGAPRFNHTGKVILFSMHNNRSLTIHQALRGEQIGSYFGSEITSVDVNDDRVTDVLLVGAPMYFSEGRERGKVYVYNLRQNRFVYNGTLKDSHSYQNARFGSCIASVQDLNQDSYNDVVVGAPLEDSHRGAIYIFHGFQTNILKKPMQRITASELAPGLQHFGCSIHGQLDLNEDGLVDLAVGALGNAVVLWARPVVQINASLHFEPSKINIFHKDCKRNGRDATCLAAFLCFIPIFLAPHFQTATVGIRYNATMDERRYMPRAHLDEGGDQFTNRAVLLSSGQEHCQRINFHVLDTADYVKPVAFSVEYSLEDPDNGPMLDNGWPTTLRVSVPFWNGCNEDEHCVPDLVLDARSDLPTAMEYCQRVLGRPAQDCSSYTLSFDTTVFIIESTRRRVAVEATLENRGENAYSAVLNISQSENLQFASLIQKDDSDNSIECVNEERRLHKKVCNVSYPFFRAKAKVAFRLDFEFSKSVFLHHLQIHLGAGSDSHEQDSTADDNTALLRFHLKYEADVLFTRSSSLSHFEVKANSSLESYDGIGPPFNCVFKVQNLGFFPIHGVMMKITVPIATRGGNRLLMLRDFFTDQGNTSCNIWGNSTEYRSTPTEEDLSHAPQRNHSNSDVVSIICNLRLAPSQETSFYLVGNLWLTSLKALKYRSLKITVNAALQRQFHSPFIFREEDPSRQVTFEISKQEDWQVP
# Sequence of mouse α11β1 (P09055 21-728 partner limits assumed): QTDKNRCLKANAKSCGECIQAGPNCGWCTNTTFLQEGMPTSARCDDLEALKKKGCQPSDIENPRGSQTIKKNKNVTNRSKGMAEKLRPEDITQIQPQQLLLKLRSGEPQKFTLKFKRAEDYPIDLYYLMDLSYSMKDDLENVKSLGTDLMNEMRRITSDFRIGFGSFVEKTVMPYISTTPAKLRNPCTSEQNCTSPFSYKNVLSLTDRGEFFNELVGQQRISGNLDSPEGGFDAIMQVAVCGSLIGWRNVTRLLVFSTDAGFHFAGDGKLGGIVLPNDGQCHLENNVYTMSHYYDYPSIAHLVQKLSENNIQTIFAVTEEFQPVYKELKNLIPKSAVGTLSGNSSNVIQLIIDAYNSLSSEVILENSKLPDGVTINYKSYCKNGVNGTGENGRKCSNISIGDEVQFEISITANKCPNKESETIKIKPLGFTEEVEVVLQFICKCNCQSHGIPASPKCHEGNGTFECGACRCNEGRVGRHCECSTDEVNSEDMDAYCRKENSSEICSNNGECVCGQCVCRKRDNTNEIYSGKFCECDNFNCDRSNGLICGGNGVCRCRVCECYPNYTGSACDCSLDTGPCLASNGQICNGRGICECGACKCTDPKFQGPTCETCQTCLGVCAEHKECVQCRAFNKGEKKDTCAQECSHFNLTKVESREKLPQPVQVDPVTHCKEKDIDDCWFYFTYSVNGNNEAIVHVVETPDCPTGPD
row,binding to mouse α11β1,Molecule
1,does not bind mouse α11β1,B1

# Same assay, conditions: binding Yes/No
row,Murine α11β1 ELISA,Molecule
1,Yes,B2
2,Yes,B3
3,No,B1
4,Yes,B4
5,No/Low,B5
6,Yes/Low,B6
7,Yes,B7

# Test system: α1β1, α2β1 and/or α10β1
# Assay: Counter-screen for cross-reactivity to other collagen receptors
# Type: binding, human
# Conditions: not given
# Protocol: Wistar rats were immunized with recombinant human α11β1 protein. An enzyme-linked immunosorbent assay (ELISA) was used to test an immune response against target human and mouse proteins. Subsequently, cell fusion (by electro fusion) was performed with animals that produced a good immune response. All fused cells were plated in a 96-well plate and supernatants were screened by ELISA against soluble human and mouse α11β1. Positive clones were counter-screened against human α1β1, α2β1 and α10β1. […] Purified antibodies were then generated from the selected clones and heavy chain and light chain variable domain sequences were obtained from each purified antibody.
# 10 mice from 5 different strains were immunized with an appropriate mixture of human α11β1, mouse α11β1 and tolerance breaking protein. Plasma titers were evaluated by ELISA against a mixture of human and mouse α11β1. Popliteal, inguinal, and iliac lymph nodes were collected. ELISA-positive anti-human/mouse α11β1 hybridomas were expanded and subjected to a secondary screen against human and mouse α11β1, control HIS protein, and a counter-screen was performed against human […], α2β1 and α10β1. Supernatant IgG concentration was sufficient for functional screening. Selected hybridomas satisfying all the criteria were cloned and clonal hybridomas were confirmed by ELISA against human and mouse α11β1 and subsequently scaled-up and IgGs were purified. Heavy and light chain variable regions of selected hybridomas were then sequenced.
# α11β1 belongs to a family of collagen receptors and has a relatively high homology to them. Therefore, the novel antibodies of this invention were counter-screened against α1β1, α2β1 and/or α10β1. Table 2 includes results of cross-reactivity to the other receptors.
row,Molecule,cross-reaction with other collagen receptors
1,B4,"does cross-react with other collagen receptors (α1β1, a2β1 and a10β1)"

# Same assay, conditions: cross-reactivity to α1β1, α2β1, α10β1
row,Off Target,Molecule
1,No,B2
2,No,B3
3,No,B1
4,Yes (all),B4
5,No,B5
6,No,B6
7,No,B7

# Molecular target: T1, α11β1 expressed on the surface of CHO-K1 cells
# Assay: FACS antibody binding to CHO-K1 cells expressing human α11
# Conditions: FACS
# Protocol: 200,000 cells (wild-type CHO-K1 cells or CHO-K1 cells expressing human α11) were incubated with each antibody at desired concentrations in FACS buffer for 30 min at 4° C. Then, the cells were washed with FACS buffer and incubated with secondary antibody at 1:100 dilution for 30 minutes at 4° C. Cells were then washed and fixed with 1% PFA in PBS for 20 minutes at room temperature; washed again and read on a cytometer in FACS buffer.
# Since integrins are large, transmembrane receptors that exist in different conformational shapes, experiments were performed to confirm that the novel antibodies also bound cell-expressed α11β1. A CHO-K1 cell line that endogenously expressed high levels of the β1 subunit was engineered to stably express human α11 (CHO-K1 hu α11).
# Binding EC50 was estimated using data from Fluorescence-activated cell sorting (FACS) performed with CHO-K1 hu α11β1 cells.
row,CHO-K1 binding EC50 (in words),Molecule
1,not as potent,B2
2,not as potent,B3

# Same assay, conditions: binding Yes/No
row,CHO-K1 FACS,Molecule
1,Yes,B2
2,Yes,B3
3,Yes,B1
4,Yes,B4
5,Yes,B5
6,No,B6
7,Yes,B7
